Paper PMC6141813, “NagRBt Is a Pleiotropic and Dual Transcriptional Regulator in Bacillus thuringiensis”

Target: NagRBt (formerly YvoABt) (Bacillus thuringiensis strain Bti75, UniProt A0A1T3UL85 1-243)
Experiment: EMSA; EMSA: 10 mM Tris-HCl pH 8.0, 1 mM MgCl2, 50 mM NaCl, 0.5 mM DTT, 0.5 mM EDTA, 5% glycerol, 30 C, 30 min; 0.2 uM probe; competition with 3.0 uM NagRBt, 400-fold
Details: protein: recombinant; tags: C-terminal His (pET-28a(+)); chain copies: 2; unlabeled (EB stain); blunt

Binder | binding result
chiA dre probe (D) (dsDNA) DNA 1: AACCAATCATCTAGACAACTATATAACACGAACGTTTTAC DNA 2: GTAAAACGTTCGTGTTATATAGTTGTCTAGATGATTGGTT | binds
crr (ptsA) dre probe (H) (dsDNA) DNA 1: TTTTTTTGCCCAACTTGTCTAGAGGTCTTTACTACATTTT DNA 2: AAAATGTAGTAAAGACCTCTAGACAAGTTGGGCAAAAAAA | binds
